Source: US20190062442A1 (AstraZeneca / MedImmune, published 2019)
Where a chain is given by its changes, count along the chain named.

Key:
[1] = molecular target: full length cynomolgus PrP^c present on the cynomolgus CynoMK-1 cell line (cynomolgus monkey, UniProt P67992 23-230); assay: flow cytometry, antibody at 5 µg/ml
[2] = molecular target: T1, Human PrP^c_N1_Flag His protein (human, UniProt P04156 23-111)
T1 sequence: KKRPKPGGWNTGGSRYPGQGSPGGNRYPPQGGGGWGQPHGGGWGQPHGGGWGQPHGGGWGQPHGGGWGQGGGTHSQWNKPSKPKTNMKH

[3] = molecular target: T2, FLAG-tagged human PrP^c_N1 (recombinant N-terminal fragment of cellular prion protein, 23-111 amino-acids) (human, UniProt P04156 23-111)
T2 sequence: T1 sequence

[4] = molecular target: T3, FLAG-tagged Cynomolgus PrP^c_N1 (cynomolgus monkey, UniProt P67992 23-111); assay: direct HTRF binding assay
T3 sequence: T1 sequence with S75N, N78H, N86S

B1: PrP^c-O0059 Hu IgG1 (antibody, V domains shown)
VH: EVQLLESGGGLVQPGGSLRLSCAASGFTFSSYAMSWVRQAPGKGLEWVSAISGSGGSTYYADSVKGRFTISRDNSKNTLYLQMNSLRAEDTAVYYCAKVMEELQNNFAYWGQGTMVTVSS
VL: QSVLTQPPSASGTPGQRVTISCSGERSDIGINYVSWYQQLPGTAPKLLIYTDDRRPPGVPDRFSASKSGTSASLAISGLRSEDEADYYCEAWHDVLGHPVFGGGTKLTVL
- binding result [1]: binds
- Kd [2]: 0.0235 nM
- koff [2]: 1.33e-05 s⁻¹
- kon [2]: 564000 M⁻¹ s⁻¹
- IC50 [3]: 0.225 nM
- binding result [4]: binds
